{
  "source": "patent US20220111022A1",
  "about": "(IMMATICS BIOTECHNOLOGIES, published 2022)",
  "data": [
    {"biological_target": "T1, HLA-A*02:01 (human)", "T1 construct": "MHC monomers first loaded with a UV-sensitive peptide (not identified) that is cleaved and exchanged for the test peptide; captured on streptavidin-coated plates and detected with anti-β2m; also called peptide-receptive MHC molecules; MHC class I", "experiment": "UV-ligand exchange, anti-b2m ELISA; peptide exchange yield grade", "text": "Candidate peptides for T cell based therapies according to the present invention were further tested for their MHC binding capacity (affinity). The individual peptide-MHC complexes were produced by UV-ligand exchange, where a UV-sensitive peptide is cleaved upon UV-irradiation and exchanged with the peptide of interest as analyzed. Only peptide candidates that can effectively bind and stabilize the peptide-receptive MHC molecules prevent dissociation of the MHC complexes. To determine the yield of the exchange reaction, an ELISA was performed based on the detection of the light chain (β2m) of stabilized MHC complexes. The assay was performed as generally described in Rodenko et al. (Rodenko et al., 2006).\n96 well MAXISorp plates (NUNC) were coated over night with 2 μg/ml streptavidin in PBS at room temperature, washed 4× and blocked for 1 h at 37° C. in 2% BSA containing blocking buffer. Refolded HLA-A*02:01/MLA-001 monomers served as standards, covering the range of 15-500 ng/ml. Peptide-MHC monomers of the UV-exchange reaction were diluted 100-fold in blocking buffer. Samples were incubated for 1 h at 37° C., washed four times, incubated with 2 μg/ml HRP conjugated anti-β2m for 1h at 37° C., washed again and detected with TMB solution that is stopped with […]. Absorption was measured at 450 nm. Candidate peptides that show a high exchange yield (preferably higher than 50%, most preferred higher than 75%) are generally preferred for a generation and production of antibodies or fragments thereof, and/or T cell receptors or fragments thereof, as they show sufficient avidity to the MHC molecules and prevent dissociation of the MHC complexes.", "units": {"peptide exchange yield": "%"}, "values": [
      {"binder": "NLLDHSSMFL", "peptide exchange yield": "≥ 75"},
      {"binder": "KLHDTSFCL", "peptide exchange yield": "≥ 75"},
      {"binder": "NLYNDLTNV", "peptide exchange yield": "50 to 75"},
      {"binder": "KMLDETVLV", "peptide exchange yield": "50 to 75"},
      {"binder": "YLDGTFRLL", "peptide exchange yield": "50 to 75"},
      {"binder": "FLNVDVSEV", "peptide exchange yield": "≥ 75"},
      {"binder": "FLNPDGSDCTL", "peptide exchange yield": "≥ 75"},
      {"binder": "FLKDVTAQI", "peptide exchange yield": "≥ 75"},
      {"binder": "GLDRTQLVNV", "peptide exchange yield": "≥ 75"},
      {"binder": "FISDFTMTI", "peptide exchange yield": "≥ 75"},
      {"binder": "ALDSSLQLL", "peptide exchange yield": "≥ 75"},
      {"binder": "ALADLTGTV", "peptide exchange yield": "≥ 75"},
      {"binder": "SLDDSLNEL", "peptide exchange yield": "50 to 75"},
      {"binder": "VLKDGTLVI", "peptide exchange yield": "20 to 50"},
      {"binder": "ILLDKSTVL", "peptide exchange yield": "≥ 75"},
      {"binder": "SQDASLLKV", "peptide exchange yield": "50 to 75"},
      {"binder": "YLHGFDLSL", "peptide exchange yield": "≥ 75"},
      {"binder": "ALAGLVYDA", "peptide exchange yield": "≥ 75"},
      {"binder": "SLFIDVTRV", "peptide exchange yield": "≥ 75"},
      {"binder": "KLAPDLTEL", "peptide exchange yield": "50 to 75"},
      {"binder": "RLQDTTIGL", "peptide exchange yield": "≥ 75"},
      {"binder": "YLGAVFDL", "peptide exchange yield": "≥ 75"},
      {"binder": "YLADFSHAT", "peptide exchange yield": "≥ 75"},
      {"binder": "SMASFLKDV", "peptide exchange yield": "≥ 75"},
      {"binder": "VLDGTEVNL", "peptide exchange yield": "≥ 75"},
      {"binder": "NLLADVSTV", "peptide exchange yield": "50 to 75"},
      {"binder": "LLDTTDVYL", "peptide exchange yield": "50 to 75"},
      {"binder": "TLDITIVNL", "peptide exchange yield": "≥ 75"},
      {"binder": "ALMDVSQNV", "peptide exchange yield": "≥ 75"},
      {"binder": "SLDISLPNL", "peptide exchange yield": "≥ 75"},
      {"binder": "AIDQTITEA", "peptide exchange yield": "50 to 75"},
      {"binder": "ILFDPDNSSAL", "peptide exchange yield": "≥ 75"},
      {"binder": "ALDSTNSEL", "peptide exchange yield": "≥ 75"},
      {"binder": "NMYDLTFHV", "peptide exchange yield": "≥ 75"},
      {"binder": "AVDKTQTSV", "peptide exchange yield": "50 to 75"},
      {"binder": "KLAPEDLADLTAL", "peptide exchange yield": "≥ 75"},
      {"binder": "LLDITNPVL", "peptide exchange yield": "≥ 75"},
      {"binder": "SQTDLSPAL", "peptide exchange yield": "≥ 75"},
      {"binder": "KLLDGSQRV", "peptide exchange yield": "50 to 75"},
      {"binder": "LLDSTAHLL", "peptide exchange yield": "≥ 75"},
      {"binder": "SLLDENDVSSYL", "peptide exchange yield": "≥ 75"},
      {"binder": "SLLRDFTLV", "peptide exchange yield": "≥ 75"},
      {"binder": "RLLDETVDVTI", "peptide exchange yield": "≥ 75"},
      {"binder": "YLWWVNDQSL", "peptide exchange yield": "≥ 75"},
      {"binder": "NLADNTILV", "peptide exchange yield": "≥ 75"},
      {"binder": "KLDASLPAL", "peptide exchange yield": "≥ 75"},
      {"binder": "KILDFTGPLFL", "peptide exchange yield": "≥ 75"},
      {"binder": "LLDDQTVTF", "peptide exchange yield": "50 to 75"}
    ]}
  ]
}
